According to patent publication US20220403025A1 (GAMMADELTA THERAPEUTICS, published 2022):

target: Vδ1 γδ T cell receptor on skin-derived γδ T cells (human); assay: cell-based or functional assay

Binder | Killing assay (EC50 µg/ml - 2 or 3 donors) | T cell degranulation (EC50 µg/ml - 3 donors)
1252_P01_C08 (IgG1) (antibody, V domains shown) VH: EVQLLESGGGLVQPGRSLRLSCAASGFTVSSNYMSWVRQAPGKGLEWVSVIYSGGSTYYADSVKGRFTISRDNSKNTLYLQMNSLRAEDTAVYYCASPIELGAFDIWGQGTLVTVSS VL: SSYELTQPPSVSVAPGKTARITCGGNNIGSQSVHWYQQKPGQAPMLVIYYDSDRPSGIPERFSGSNSGNTATLTISRVEAGDEADYYCQVWDSSSDHVVFGGGTKLTVL | 0.02 µg/mL | –
1245_P02_G04 (IgG1, made in HEK) (antibody, V domains shown) VH: QVQLQQSGPGLVKPSQTLSLTCAISGDSVSSKSAAWNWIRQSPSRGLEWLGRTYYRSKWSTDYAASVKSRITINPDTSKNQLSLQLNSVTPEDTAVYYCARTWSGYVDVWGQGTLVTVSS VL: DIQMTQSPPALSASVGDRVTITCRASQDINDWLAWYQHKPGKAPKLLIYDASSLESGVPSRFSGSGSGTEFTLTISSLQPDDFATYYCQQSYSTPQVTFGQGTRLEIK | 0.1 µg/mL | 0.002 µg/mL
1139_P01_E04 (IgG1) (antibody, V domains shown) VH: QVQLQQSGPGLVKPSQTLSLTCAISGDSVSSNSAAWNWIRQSPSRGLEWLGRTYYRSKWYNDYAVSVRSRITINPDTSKNQFSLQLNSVTPEDTAVYYCARSWNDAFDIWGQGTTVTVSS VL: DIVMTQSPSTLSASIGDRVTITCRAGQSISTWLAWYQQKPGKAPKLLIYDASSLESGVPLRFSGSGSGTDFTLTISSLQPEDFATYYCQQSYSTPLTFGGGTKVEIK | – | 0.005 µg/mL
1245_P01_G06 (IgG1) (antibody, V domains shown) VH: QVQLVESGGGLVKPGGSLRLSCAASGFTFSDYYMSWIRQAPGKGLEWVSYISSSGSTIYYADSVKGRFTISRDNAKNSLYLQMNSLRAEDTAVYYCARHSWNDAFDVWGQGTLVTVSS VL: not shown | – | 0.001 µg/mL
1245_P01_G09 (IgG1) (antibody, V domains shown) VH: QVQLQQSGPGLVKPSQTLSLTCAISGDSVSSNSAAWNWIRQSPSRGLEWLGRTYYGSKWYNEYALSVKSRIIINPDTSKNQFSLQLNSVTPEDTAVYYCARDYYYSMDVWGQGTLVTVSS VL: DIVMTQSPSTLSASIGDRVTITCRAGQSISTWLAWYQQKPGKAPKLLIYDASSLESGVPLRFSGSGSGTEFTLAISSLQPDDFATYYCQQSYSTPVTFGQGTKVEIK | – | 0.001 µg/mL
1245_P01_E07 (IgG1) (antibody, V domains shown) VH: QVQLVESGGGLVKPGGSLRLSCAASGFTFSDYYMSWIRQAPGKGLEWVSYISSSGSTIYYADSVKGRFTISRDNAKNSLYLQMNSLRAEDTAVYYCARVDYADAFDIWGQGTLVTVSS VL: DIQMTQSPSSLSASVGDRVTIACRAGQSIGTYLNWYQQKPGKAPKLLIYVASSLQSGVPSRFSGSGSGTEFTLTISSLQPEDFATYYCQQSYSTLLTFGRGTKVEIK | 0.06 µg/mL | –
